These results are taken from PMC7615827.

pKd: −log10 of the molar value.

This test has as its target ABD-AS25 (albumin binding domain fused to monobody AS25; ABD-…-AS25-Cys). As to the kind of experiment: ITC.

The pKd is the Kd on a negative log10 scale, so that one unit is a factor of ten. A higher pKd goes with a low Kd. In the case of “Human Serum Albumin (from UniProt P02768 25-609) (natural protein)”, the pKd is 8.29.

In general, stoichiometry N refers to the number of molecules, sites or subunits per partner or assembly. The substance “Bcr-Abl SH2 domain (from UniProt P00519 127-217) (domain or fragment)” showed a pKd of 7.37 and a stoichiometry N of 1.
